{"source": "patent US20210040184A1", "about": "(ATRECA, published 2021)", "binders": {"B1": {"name": "NVS49-L1A2 (antibody, V domains shown)", "VH": "ADLVQSGAVVKKPGDSVRISCEAQGYRFPDYIIHWIRRAPGQGPEWMGWMNPMGGQVNIPWKFQGRVSMTRDTSIETAFLDLRGLKSDDTAVYYCVRDRSNGSGKRFESSNWFLDLWGRGTAVTIQS", "VL": "QSALTQPRSVSASPGQSVTISCTGTHNLVSWCQHQPGRAPKLLIYDFNKRPSGVPDRFSGSGSGGTASLTITGLQDDDDAEYFCWAYEAFGGGTKLTVL"}, "B2": {"name": "Germ12_NglycoSA_CysCV (antibody, V domains shown)", "VH": "QVDLVQSGAVVKKPGDSVRVSCEAQGYRFPDYIIHWIRRAPGQGPEWMGWMNPMGGQVNIPWKFQGRVSMTRDTSIETAYMDLRGLRSDDTAVYYCVRDRSNGAGKRFESSNWFLDLWGRGTLVTVSS", "VL": "B1 VL with A12G, C32V, T72S, D77E"}, "B3": {"name": "NglycoND (antibody, V domains shown)", "VH": "B1 VH with N101D", "VL": "B1 VL"}}, "experiment_in_all_cases": "cell-based or functional assay", "key": {"[1]": {"molecular_target": "T1, HIV-1 CNE20 envelope (Env) on Env.IMC.LucR virus (HIV-1 clade BC)"}, "[2]": {"molecular_target": "T2, HIV-1 DU172.17 envelope (Env) on Env.IMC.LucR virus (HIV-1 clade C)"}, "[3]": {"molecular_target": "HIV-1 WITO4160.33 envelope (Env) on Env.IMC.LucR virus (HIV-1 clade B)"}, "[4]": {"molecular_target": "T3, HIV-1 CAP45.2.00.G3 envelope (Env) on Env.IMC.LucR virus (HIV-1 clade C)"}, "[5]": {"molecular_target": "HIV-1 ZM233M.PB6 envelope (Env) on Env.IMC.LucR virus (HIV-1 clade C)"}, "[6]": {"molecular_target": "T4, HIV-1 DU422.1 envelope (Env) on Env.IMC.LucR virus (HIV-1 clade C)"}, "[7]": {"molecular_target": "T5, HIV-1 AC10.0.29 envelope (Env) on Env.IMC.LucR virus (HIV-1 clade B)"}, "[8]": {"molecular_target": "T6, HIV-1 REJO4541.67 envelope (Env) on Env.IMC.LucR virus (HIV-1 clade B)"}, "[9]": {"molecular_target": "T7, HIV-1 X1632_S2_B10 envelope (Env) on Env.IMC.LucR virus (HIV-1 clade G)"}, "[10]": {"molecular_target": "HIV-1 THRO4156.18 envelope (Env) on Env.IMC.LucR virus (HIV-1 clade B)"}, "[11]": {"molecular_target": "T1, HIV-1 CNE20 envelope (Env) on …", "remark": "listed apart in the source"}, "[12]": {"molecular_target": "T2, HIV-1 DU172.17 envelope (Env) on …", "remark": "listed apart in the source"}, "[13]": {"molecular_target": "T3, HIV-1 CAP45.2.00.G3 envelope (Env) on …", "remark": "listed apart in the source"}, "[14]": {"molecular_target": "T4, HIV-1 DU422.1 envelope (Env) on …", "remark": "listed apart in the source"}, "[15]": {"molecular_target": "T5, HIV-1 AC10.0.29 envelope (Env) on …", "remark": "listed apart in the source"}, "[16]": {"molecular_target": "T6, HIV-1 REJO4541.67 envelope (Env) on …", "remark": "listed apart in the source"}, "[17]": {"molecular_target": "T7, HIV-1 X1632_S2_B10 envelope (Env) on …", "remark": "listed apart in the source"}, "[18]": {"molecular_target": "T2, HIV-1 DU172.17 envelope (Env) on …", "remark": "listed apart in the source"}}, "note": "Numbering of substitutions follows the chain as printed."}
{"binder": "B1", "values": [{"measurement": "IC50 of virus neutralization (TZM-BL, luciferase)", "setting": "[1]", "value": 0.124, "unit": "µg/mL"}, {"measurement": "IC50 of virus neutralization (TZM-BL, luciferase)", "setting": "[2]", "value": 0.279, "unit": "µg/mL"}, {"measurement": "IC50 of virus neutralization (TZM-BL, luciferase)", "setting": "[3]", "value": 0.2, "unit": "µg/mL"}, {"measurement": "IC50 of virus neutralization (TZM-BL, luciferase)", "setting": "[4]", "value": 0.209, "unit": "µg/mL"}, {"measurement": "IC50 of virus neutralization (TZM-BL, luciferase)", "setting": "[5]", "value": 0.613, "unit": "µg/mL"}, {"measurement": "IC50 of virus neutralization (TZM-BL, luciferase)", "setting": "[6]", "value": "> 50", "unit": "µg/mL"}, {"measurement": "IC50 of virus neutralization (TZM-BL, luciferase)", "setting": "[7]", "value": "> 50", "unit": "µg/mL"}, {"measurement": "IC50 of virus neutralization (TZM-BL, luciferase)", "setting": "[8]", "value": 0.072, "unit": "µg/mL"}, {"measurement": "IC50 of virus neutralization (TZM-BL, luciferase)", "setting": "[9]", "value": "> 50", "unit": "µg/mL"}, {"measurement": "IC50 of virus neutralization (TZM-BL, luciferase)", "setting": "[10]", "value": 1.04, "unit": "µg/mL"}, {"measurement": "IC50 of virus neutralization (TZM-BL, luciferase); L1A2 lot CRO #1, 293 cells", "setting": "[11]", "value": 0.089, "unit": "µg/mL"}, {"measurement": "IC50 of virus neutralization (TZM-BL, luciferase); L1A2 lot CRO #2, 293 cells", "setting": "[11]", "value": 0.124, "unit": "µg/mL"}, {"measurement": "IC50 of virus neutralization (TZM-BL, luciferase); L1A2 lot CRO #2, CHO cells", "setting": "[11]", "value": 0.092, "unit": "µg/mL"}, {"measurement": "IC50 of virus neutralization (TZM-BL, luciferase); L1A2 lot CRO #1, 293 cells", "setting": "[12]", "value": 0.268, "unit": "µg/mL"}, {"measurement": "IC50 of virus neutralization (TZM-BL, luciferase); L1A2 lot CRO #2, 293 cells", "setting": "[12]", "value": 0.279, "unit": "µg/mL"}, {"measurement": "IC50 of virus neutralization (TZM-BL, luciferase); L1A2 lot CRO #2, CHO cells", "setting": "[12]", "value": 0.507, "unit": "µg/mL"}, {"measurement": "IC50 of virus neutralization (TZM-BL, luciferase); L1A2 lot CRO #1, 293 cells", "setting": "[13]", "value": 0.132, "unit": "µg/mL"}, {"measurement": "IC50 of virus neutralization (TZM-BL, luciferase); L1A2 lot CRO #2, 293 cells", "setting": "[13]", "value": 0.209, "unit": "µg/mL"}, {"measurement": "IC50 of virus neutralization (TZM-BL, luciferase); L1A2 lot CRO #2, CHO cells", "setting": "[13]", "value": 0.162, "unit": "µg/mL"}, {"measurement": "IC50 of virus neutralization (TZM-BL, luciferase); L1A2 lot CRO #1, 293 cells", "setting": "[14]", "value": "> 50", "unit": "µg/mL"}, {"measurement": "IC50 of virus neutralization (TZM-BL, luciferase); L1A2 lot CRO #2, 293 cells", "setting": "[14]", "value": "> 50", "unit": "µg/mL"}, {"measurement": "IC50 of virus neutralization (TZM-BL, luciferase); L1A2 lot CRO #2, CHO cells", "setting": "[14]", "value": "> 50", "unit": "µg/mL"}, {"measurement": "IC50 of virus neutralization (TZM-BL, luciferase); L1A2 lot CRO #1, 293 cells", "setting": "[15]", "value": "> 50", "unit": "µg/mL"}, {"measurement": "IC50 of virus neutralization (TZM-BL, luciferase); L1A2 lot CRO #2, 293 cells", "setting": "[15]", "value": "> 50", "unit": "µg/mL"}, {"measurement": "IC50 of virus neutralization (TZM-BL, luciferase); L1A2 lot CRO #2, CHO cells", "setting": "[15]", "value": "> 50", "unit": "µg/mL"}, {"measurement": "IC50 of virus neutralization (TZM-BL, luciferase); L1A2 lot CRO #1, 293 cells", "setting": "[16]", "value": 0.054, "unit": "µg/mL"}, {"measurement": "IC50 of virus neutralization (TZM-BL, luciferase); L1A2 lot CRO #2, 293 cells", "setting": "[16]", "value": 0.072, "unit": "µg/mL"}, {"measurement": "IC50 of virus neutralization (TZM-BL, luciferase); L1A2 lot CRO #2, CHO cells", "setting": "[16]", "value": 0.045, "unit": "µg/mL"}, {"measurement": "IC50 of virus neutralization (TZM-BL, luciferase); L1A2 lot CRO #1, 293 cells", "setting": "[17]", "value": "> 50", "unit": "µg/mL"}, {"measurement": "IC50 of virus neutralization (TZM-BL, luciferase); L1A2 lot CRO #2, 293 cells", "setting": "[17]", "value": "> 50", "unit": "µg/mL"}, {"measurement": "IC50 of virus neutralization (TZM-BL, luciferase); L1A2 lot CRO #2, CHO cells", "setting": "[17]", "value": "> 50", "unit": "µg/mL"}]}
{"binder": "B2", "values": [{"measurement": "IC50 of virus neutralization (TZM-BL, luciferase)", "setting": "[1]", "value": 0.059, "unit": "µg/mL"}, {"measurement": "IC50 of virus neutralization (TZM-BL, luciferase)", "setting": "[2]", "value": 0.714, "unit": "µg/mL"}, {"measurement": "IC50 of virus neutralization (TZM-BL, luciferase)", "setting": "[3]", "value": 0.488, "unit": "µg/mL"}, {"measurement": "IC50 of virus neutralization (TZM-BL, luciferase)", "setting": "[4]", "value": 0.047, "unit": "µg/mL"}, {"measurement": "IC50 of virus neutralization (TZM-BL, luciferase)", "setting": "[5]", "value": 0.731, "unit": "µg/mL"}, {"measurement": "IC50 of virus neutralization (TZM-BL, luciferase)", "setting": "[6]", "value": "> 50", "unit": "µg/mL"}, {"measurement": "IC50 of virus neutralization (TZM-BL, luciferase)", "setting": "[7]", "value": "> 50", "unit": "µg/mL"}, {"measurement": "IC50 of virus neutralization (TZM-BL, luciferase)", "setting": "[8]", "value": "≤ 0.02", "unit": "µg/mL"}, {"measurement": "IC50 of virus neutralization (TZM-BL, luciferase)", "setting": "[9]", "value": "> 50", "unit": "µg/mL"}, {"measurement": "IC50 of virus neutralization (TZM-BL, luciferase)", "setting": "[10]", "value": 11.7, "unit": "µg/mL"}]}
{"binder": "B3", "values": [{"measurement": "fold increase in neutralization IC50 as compared to parent mAb L1A2", "setting": "[18]", "value": "~65", "unit": "fold"}, {"measurement": "IC50 of virus neutralization (TZM-BL, luciferase)", "setting": "[1]", "value": "> 50", "unit": "µg/mL"}, {"measurement": "IC50 of virus neutralization (TZM-BL, luciferase)", "setting": "[2]", "value": 18.3, "unit": "µg/mL"}, {"measurement": "IC50 of virus neutralization (TZM-BL, luciferase)", "setting": "[4]", "value": 0.077, "unit": "µg/mL"}, {"measurement": "IC50 of virus neutralization (TZM-BL, luciferase)", "setting": "[6]", "value": "> 50", "unit": "µg/mL"}, {"measurement": "IC50 of virus neutralization (TZM-BL, luciferase)", "setting": "[7]", "value": "> 50", "unit": "µg/mL"}, {"measurement": "IC50 of virus neutralization (TZM-BL, luciferase)", "setting": "[8]", "value": 0.062, "unit": "µg/mL"}, {"measurement": "IC50 of virus neutralization (TZM-BL, luciferase)", "setting": "[9]", "value": "> 50", "unit": "µg/mL"}]}
